Reference: the supplement of paper PMC10724198
± gives the standard deviation of the averaged measurements.

Tested on: Saccharomyces cerevisiae
Experiment: protein stability index of tFT-peptide fusion (C-terminal peptide) (PSI (0-1 scale)); higher = more stable (slower turnover)
Details: genetic background: wild type; temperature: 30 C
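Also: PSI is a weighted mean of sequencing reads over stability bins, variants kept only with over 10 reads, mCherry proximal and sfGFP distal, peptide attached via GGGS linker.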

Row | Sequence | protein stability index
1 | RVHSRSYNVMLD | 0.6988 ± 0.00049
2 | RVIEWHEEKLRV | 0.783 ± 0.017
3 | RVKNVDAVKKHK | 0.635 ± 0.0088
4 | RVLSVRFRIGRE | 0.636 ± 0.061
5 | RVPLHSSTVFWL | 0.7 ± 0.04
6 | RVPPAIPSRRAC | 0.682 ± 0.06
7 | RVPRYEKIVSSI | 0.658 ± 0.013
8 | RVRRWGSSTLVG | 0.676 ± 0.041
9 | RVRWRSQRSMVV | 0.689 ± 0.025
10 | RVSGSFSCVCES | 0.6814 ± 0.0054
11 | RVSIDIMNALGR | 0.627 ± 0.033
12 | RVSPWSDLSAFL | 0.745 ± 0.045
13 | RVVGGRDVRGGG | 0.737 ± 0.049
14 | RWFQSSDVVDRQ | 0.703 ± 0.086
15 | RWGGWGYRGGVP | 0.752 ± 0.062
16 | RWRECVVWGVWG | 0.663 ± 0.0096
17 | RWRRGGRRAPWP | 0.62 ± 0.012
18 | RWSCLADQSANR | 0.7052 ± 0.0051
19 | RWWRLRSGGGRR | 0.707 ± 0.017
20 | RYHLHFIGDVGF | 0.6974 ± 0.0042
21 | SAGPNCVWSSYN | 0.732 ± 0.0098
22 | SAIGVGGVGTGG | 0.633 ± 0.039
23 | SALFLVPRASWL | 0.659 ± 0.036

Row | Sequence | protein stability index
24 | SALTSLAFGSFE | 0.704 ± 0.046
25 | SAPPLPPPPPPP | 0.682 ± 0.016
26 | SAPSAAPPRSHP | 0.708 ± 0.025
27 | SAPVPPSPPRPR | 0.8 ± 0.0089
28 | SAPYLSTTLSVK | 0.671 ± 0.011
29 | SAQGPVLFSTGP | 0.716 ± 0.044
30 | SARFALSQAPPI | 0.814 ± 0.12
31 | SARSAARRWVRR | 0.694 ± 0.026
32 | SASGARVEARMH | 0.6435 ± 0.0017
33 | SASLPSPCPDFG | 0.6703 ± 0.0021
34 | SASSAHLDGACR | 0.691 ± 0.0075
35 | SASSFGTLYCYS | 0.6966 ± 0.0019
36 | SASVARSRRCVR | 0.612 ± 0.057
37 | SASVLPSPLPPV | 0.708 ± 0.028
38 | SATLRCASLSFC | 0.679 ± 0.014
39 | SATWQLPGYFLI | 0.681 ± 0.04
40 | SCFCNFFRFCCI | 0.637 ± 0.029
41 | SCFFFSWIRGFC | 0.598 ± 0.032
42 | SCFRTLPGRWPF | 0.793 ± 0.022
43 | SCLSLSGLPSPL | 0.677 ± 0.062
44 | SCSGTIGVYENP | 0.684 ± 0.024
45 | SCSVAIFLLSSP | 0.6848 ± 0.0025
46 | SCTPPLPFFTSF | 0.704 ± 0.028

Row | Sequence | protein stability index
47 | SCVSDAKMGGLG | 0.655 ± 0.084
48 | SCVWVPGCGPSR | 0.679 ± 0.0072
49 | SDDGIRLLNQSF | 0.59 ± 0.095
50 | SDVHGLSLSDVS | 0.632 ± 0.085
51 | SEAGSVMPIGLV | 0.642 ± 0.082
52 | SEIKKNKLTVMK | 0.677 ± 0.016
53 | SEPPPPTPPPLP | 0.679 ± 0.18
54 | SERKRMQRRVVY | 0.655 ± 0.021
55 | SERVCHESCLVG | 0.68 ± 0.047
56 | SESKMRKVEPKM | 0.7459 ± 0.00085
57 | SEVGLSFGLVSF | 0.719 ± 0.032
58 | SEYHGRAQKTGP | 0.744 ± 0.034
59 | SFAHIVSLPVSM | 0.657 ± 0.037
60 | SFAQANRYLTSL | 0.699 ± 0.012
61 | SFATPCCYPLHF | 0.713 ± 0.037
62 | SFCACDRYRIGV | 0.727 ± 0.038
63 | SFGGRMSVPTCC | 0.594 ± 0.035
64 | SFGSAANSRAYI | 0.749 ± 0.042
65 | SFITFGGWLGGM | 0.705 ± 0.14
66 | SFLGLDDEICLR | 0.716 ± 0.044
67 | SFLISPFSLFSS | 0.771 ± 0.051
68 | SFLPHALPATAS | 0.682 ± 0.07
69 | SFPFSCSSSVTH | 0.72 ± 0.055

Row | Sequence | protein stability index
70 | SFPPVSSLSFSP | 0.707 ± 0.048
71 | SFSAFRCDPAEM | 0.676 ± 0.011
72 | SFSLPLSPPSFF | 0.721 ± 0.058
73 | SFSPSVLSREVS | 0.66 ± 0.066
74 | SFSQTFSSLSSP | 0.702 ± 0.054
75 | SFVGPFCLTLSI | 0.596 ± 0.092
76 | SFVQLNGAVDLA | 0.717 ± 0.031
77 | SGAADGDADRHP | 0.721 ± 0.029
78 | SGAGGGGWWGGV | 0.731 ± 0.011
79 | SGAGVNWGVGGG | 0.728 ± 0.019
80 | SGATVGVLCFAS | 0.58 ± 0.006
81 | SGCCCGSDVYIG | 0.6905 ± 0.0055
82 | SGCVLCLCCYMV | 0.666 ± 0.015
83 | SGCWREVEVGFG | 0.737 ± 0.059
84 | SGFLAKNIKQLC | 0.578 ± 0.042
85 | SGFQAPGSVASE | 0.623 ± 0.014
86 | SGFQIRVPVFMG | 0.619 ± 0.0095
87 | SGFVQRLHVICN | 0.5706 ± 0.0011
88 | SGGCVLRLWGFV | 0.6853 ± 0.0019
89 | SGHRLGRGQGQR | 0.67 ± 0.02
90 | SGIYQTTSYIKI | 0.7505 ± 0.0029
91 | SGLFPLSPKPCP | 0.619 ± 0.11
92 | SGLGRETHGSYS | 0.66 ± 0.012

Row | Sequence | protein stability index
93 | SGMGGCRKGFEG | 0.717 ± 0.011
94 | SGPRVCPGMHWQ | 0.651 ± 0.013
95 | SGPYPVGKQRSE | 0.649 ± 0.05
96 | SGRGWILCAYRV | 0.632 ± 0.024
97 | SGRSGECEGSWD | 0.662 ± 0.13
98 | SGRTQPRGKHNA | 0.683 ± 0.016
99 | SGRVELGVVGGG | 0.695 ± 0.04
100 | SGSCPSSTSATT | 0.732 ± 0.057
101 | SGSGVLVGCLGS | 0.68 ± 0.038
102 | SGSVALWVCSVV | 0.5878 ± 0.0056
103 | SGTVRSTPPHPP | 0.664 ± 0.0072
104 | SGVAAPVRPRSV | 0.854 ± 0.11
105 | SGVAYAVYLVFR | 0.472 ± 0.047
106 | SGVFARIKRTVV | 0.489 ± 0.072
107 | SGVGCLVFGRGF | 0.645 ± 0.046
108 | SGVGPGNPPRPG | 0.689 ± 0.011
109 | SGVPGGSVGVPG | 0.661 ± 0.028
110 | SGVVSASFVVLD | 0.677 ± 0.01
111 | SGWEVAGGCDNK | 0.692 ± 0.0021
112 | SGWRCSVAVLQV | 0.592 ± 0.033
113 | SGYYTRVFICEV | 0.618 ± 0.025
114 | SHESRPNLGCIY | 0.678 ± 0.026
115 | SHFPPPSTPPVL | 0.713 ± 0.015

Row | Sequence | protein stability index
116 | SHLPPRSPPVPS | 0.6825 ± 0.0051
117 | SHPPPPPSPPPR | 0.6922 ± 0.0051
118 | SICSIRPFSDLP | 0.683 ± 0.015
119 | SIGYDLFTKDKI | 0.789 ± 0.13
120 | SIIRYNKSATIT | 0.667 ± 0.047
121 | SIIYKRKKGRRW | 0.714 ± 0.039
122 | SILTALGEVLLV | 0.665 ± 0.013
123 | SILVAGVSAGRC | 0.669 ± 0.021
124 | SIMSVLPYCSCS | 0.708 ± 0.06
125 | SIQCHNTKKFYE | 0.715 ± 0.032
126 | SISSVFCTGRCH | 0.721 ± 0.19
127 | SIVAWGWPAASE | 0.85 ± 0.19
128 | SIVIGGSWGRSW | 0.711 ± 0.052
129 | SIVSQGISDLGR | 0.656 ± 0.046
130 | SIYIEKERKMIV | 0.686 ± 0.025
131 | SKGECYSETDVA | 0.684 ± 0.018
132 | SKKNKPAQRRPH | 0.729 ± 0.026
133 | SKKRKEKRTKEW | 0.63 ± 0.083
134 | SKLEREKQNKGY | 0.634 ± 0.021
135 | SKLRKGNSIDDR | 0.625 ± 0.016
136 | SKREYGKEYKRK | 0.656 ± 0.0084
137 | SKSCIVSNVLVY | 0.511 ± 0.014
138 | SKTIRDTYIFKR | 0.816 ± 0.15

Row | Sequence | protein stability index
139 | SLASCLLRPPLY | 0.693 ± 0.021
140 | SLASYFFHVSHS | 0.7127 ± 0.0064
141 | SLCLPFPSSPPP | 0.677 ± 0.0083
142 | SLDGTVHARRAH | 0.695 ± 0.07
143 | SLDISDCGFCLH | 0.697 ± 0.018
144 | SLDRASPPTSVA | 0.625 ± 0.0007
145 | SLFFGDCNLVRV | 0.7166 ± 0.0036
146 | SLFPPAPPPPRS | 0.641 ± 0.098
147 | SLFRSSHPPRPP | 0.605 ± 0.034
148 | SLFSFSLSLCSP | 0.653 ± 0.06
149 | SLFYSPSSVFSF | 0.866 ± 0.13
150 | SLGCLLENRRGL | 0.641 ± 0.015
151 | SLGGFLPPESFV | 0.708 ± 0.049
152 | SLGSRFWGPYPF | 0.679 ± 0.029
153 | SLGVPVVWGLWI | 0.744 ± 0.032
154 | SLILSAGLGFFF | 0.719 ± 0.095
155 | SLKELSYKGTLR | 0.65 ± 0.038
156 | SLLHGVFFWVLT | 0.572 ± 0.013
157 | SLLPLSTPPASP | 0.624 ± 0.0079
158 | SLLRPPHASFSS | 0.688 ± 0.044
159 | SLLSLPPSRAPS | 0.666 ± 0.022
160 | SLLTLVIPTLFS | 0.665 ± 0.0048
